± gives the standard deviation of the averaged measurements.
Assays:
[1] = test system: hTERT-HMEC; test: percentage of EdU-negative (G0-arrested) nuclei per well, 72 h; higher = more G0 arrest; details: reference: sequence is the full UniProt precursor, the tested protein was the secreted form or ectodomain
[2] = test system: MCF7; test: as above; details: reference: sequence is the full UniProt precursor, the tested protein was the secreted form or ectodomain
[3] = protein concentration 0.0257143 µM
[4] = protein concentration 0.257143 µM
[5] = protein concentration 0.0225 µM
[6] = protein concentration 0.0357143 µM
[7] = protein concentration 0.357143 µM
[8] = protein concentration 0.0125 µM
[9] = protein concentration 0.0295 µM
[10] = protein concentration 0.03125 µM
[11] = protein concentration 0.3125 µM
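Also: secreted proteins added to cultured cells, EdU pulse at the end, nuclei found by Hoechst imaging, EdU status from nuclear versus surrounding ring intensity ratio, PBS as neutral control.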

Sequence	percentage of EdU-negative [1, 5] [%]	percentage of EdU-negative ([1]; protein concentration 0.225 µM) [%]	percentage of EdU-negative [2, 5] [%]	percentage of EdU-negative ([2]; protein concentration 0.225 µM) [%]	also measured
MKAIIHLTLLALLSVNTATNQGNSADAVTTTETATSGPTVAAADTTETNFPETASTTANTPSFPTATSPAPPIISTHSSSTIPTPAPPIISTHSSSTIPIPTAADSESTTNVNSLATSDIITASSPNDGLITMVPSETQSNNEMSPTTEDNQSSGPPTGTALLETSTLNSTGPSNPCQDDPCADNSLCVKLHNTSFCLCLEGYYYNSSTCKKGKVFPGKISVTVSETFDPEEKHSMAYQDLHSEITSLFKDVFGTSVYGQTVILTVSTSLSPRSEMRADDKFVNVTIVTILAETTSDNEKTVTEKINKAIRSSSSNFLNYDLTLRCDYYGCNQTADDCLNGLACDCKSDLQRPNPQSPFCVASSLKCPDACNAQHKQCLIKKSGGAPECACVPGYQEDANGNCQKCAFGYSGLDCKDKFQLILTIVGTIAGIVILSMIIALIVTARSNNKTKHIEEENLIDEDFQNLKLRSTGFTNLGAEGSVFPKVRITASRDSQMQNPYSRHSSMPRPDY [Q9H3R2]					percentage of EdU-negative [1, 3]: 5.64 ± 0.33%; percentage of EdU-negative [1, 4]: 5.31 ± 0.37%; percentage of EdU-negative [2, 3]: 22.5 ± 1.3%; percentage of EdU-negative [2, 4]: 26.7 ± 0.67%
MLLLPFQLLAVLFPGGNSEHAFQGPTSFHVIQTSSFTNSTWAQTQGSGWLDDLQIHGWDSDSGTAIFLKPWSKGNFSDKEVAELEEIFRVYIFGFAREVQDFAGDFQMKYPFEIQGIAGCELHSGGAIVSFLRGALGGLDFLSVKNASCVPSPEGGSRAQKFCALIIQYQGIMETVRILLYETCPRYLLGVLNAGKADLQRQVKPEAWLSSGPSPGPGRLQLVCHVSGFYPKPVWVMWMRGEQEQQGTQLGDILPNANWTWYLRATLDVADGEAAGLSCRVKHSSLEGQDIILYWRNPTSIGSIVLAIIVPSLLLLLCLALWYMRRRSYQNIP	5.01 ± 0.84	6.06 ± 0.84	25.9 ± 0.97	24.2 ± 1.6	
MELWGAYLLLCLFSLLTQVTTEPPTQKPKKIVNAKKDVVNTKMFEELKSRLDTLAQEVALLKEQQALQTVCLKGTKVHMKCFLAFTQTKTFHEASEDCISRGGTLGTPQTGSENDALYEYLRQSVGNEAEIWLGLNDMAAEGTWVDMTGARIAYKNWETEITAQPDGGKTENCAVLSGAANGKWFDKRCRDQLPYICQFGIV					percentage of EdU-negative [1, 6]: 5.64 ± 0.21%; percentage of EdU-negative [1, 7]: 25.4 ± 5%; percentage of EdU-negative [2, 6]: 23.3 ± 2.7%; percentage of EdU-negative [2, 7]: 26.7 ± 0.6%
MGALRPTLLPPSLPLLLLLMLGMGCWAREVLVPEGPLYRVAGTAVSISCNVTGYEGPAQQNFEWFLYRPEAPDTALGIVSTKDTQFSYAVFKSRVVAGEVQVQRLQGDAVVLKIARLQAQDAGIYECHTPSTDTRYLGSYSGKVELRVLPDVLQVSAAPPGPRGRQAPTSPPRMTVHEGQELALGCLARTSTQKHTHLAVSFGRSVPEAPVGRSTLQEVVGIRSDLAVEAGAPYAERLAAGELRLGKEGTDRYRMVVGGAQAGDAGTYHCTAAEWIQDPDGSWAQIAEKRAVLAHVDVQTLSSQLAVTVGPGERRIGPGEPLELLCNVSGALPPAGRHAAYSVGWEMAPAGAPGPGRLVAQLDTEGVGSLGPGYEGRHIAMEKVASRTYRLRLEAARPGDAGTYRCLAKAYVRGSGTRLREAASARSRPLPVHVREEGVVLEAVAWLAGGTVYRGETASLLCNISVRGGPPGLRLAASWWVERPEDGELSSVPAQLVGGVGQDGVAELGVRPGGGPVSVELVGPRSHRLRLHSLGPEDEGVYHCAPSAWVQHADYSWYQAGSARSGPVTVYPYMHALDTLFVPLLVGTGVALVTGATVLGTITCCFMKRLRKR [Q969P0]	5.09 ± 0.17	5.05 ± 0.19	25 ± 1.3	26.5 ± 0.91	
MERVQPLEENVGNAARPRFERNKLLLVASVIQGLGLLLCFTYICLHFSALQVSHRYPRIQSIKVQFTEYKKEKGFILTSQKEDEIMKVQNNSVIINCDGFYLISLKGYFSQEVNISLHYQKDEEPLFQLKKVRSVNSLMVASLTYKDKVYLNVTTDNTSLDDFHVNGGELILIHQNPGEFCVL					percentage of EdU-negative [1, 3]: 5.74 ± 1.2%; percentage of EdU-negative [1, 4]: 5.19 ± 1.2%; percentage of EdU-negative [2, 3]: 23.4 ± 0.97%; percentage of EdU-negative [2, 4]: 27.27 ± 0.14%
MDTRNKAQLLVLLTLLSVLFSQTSAWPLYRAPSALRLGDRIPFEGANEPDQVSLKEDIDMLQNALAENDTPYYDVSRNARHADGVFTSDFSKLLGQLSAKKYLESLMGKRVSSNISEDPVPVKRHSDAVFTDNYTRLRKQMAVKKYLNSILNGKRSSEGESPDFPEELEK					percentage of EdU-negative [1, 8]: 5.76 ± 0.37%; percentage of EdU-negative ([1]; protein concentration 0.125 µM): 5.43 ± 0.065%; percentage of EdU-negative [2, 8]: 27.7 ± 3.4%; percentage of EdU-negative ([2]; protein concentration 0.125 µM): 22.42 ± 0.17%
MNAFLLSALCLLGAWAALAGGVTVQDGNFSFSLESVKKLKDLQEPQEPRVGKLRNFAPIPGEPVVPILCSNPNFPEELKPLCKEPNAQEILQRLEEIAEDPGTCEICAYAACTGC	5.03 ± 0.081	5.29 ± 0.21	27.03 ± 0.26	24.3 ± 0.35	
MSMSPTVIILACLGFFLDQSVWAHVGGQDKPFCSAWPSAVVPQGGHVTLRCHYRRGFNIFTLYKKDGVPVPELYNRIFWNSFLISPVTPAHAGTYRCRGFHPHSPTEWSAPSNPLVIMVTGLYEKPSLTARPGPTVRAGENVTLSCSSQSSFDIYHLSREGEAHELRLPAVPSINGTFQADFPLGPATHGETYRCFGSFHGSPYEWSDPSDPLPVSVTGNPSSSWPSPTEPSFKTGIARHLHAVIRYSVAIILFTILPFFLLHRWCSKKKDAAVMNQEPAGHRTVNREDSDEQDPQEVTYAQLDHCIFTQRKITGPSQRSKRPSTDTSVCIELPNAEPRALSPAHEHHSQALMGSSRETTALSQTQLASSNVPAAGI	5.29 ± 1.2	4.83 ± 0.51	24.4 ± 3.2	25.68 ± 0.13	
MLGLPWKGGLSWALLLLLLGSQILLIYAWHFHEQRDCDEHNVMARYLPATVEFAVHTFNQQSKDYYAYRLGHILNSWKEQVESKTVFSMELLLGRTRCGKFEDDIDNCHFQESTELNNTFTCFFTISTRPWMTQFSLLNKTCLEGFH [Q9H4G1]					percentage of EdU-negative [1, 9]: 4.64 ± 0.079%; percentage of EdU-negative ([1]; protein concentration 0.295 µM): 4.42 ± 0.36%; percentage of EdU-negative [2, 9]: 27.1 ± 2.6%; percentage of EdU-negative ([2]; protein concentration 0.295 µM): 28.28 ± 0.082%
MATHHTLWMGLALLGVLGDLQAAPEAQVSVQPNFQQDKFLGRWFSAGLASNSSWLREKKAALSMCKSVVAPATDGGLNLTSTFLRKNQCETRTMLLQPAGSLGSYSYRSPHWGSTYSVSVVETDYDQYALLYSQGSKGPGEDFRMATLYSRTQTPRAELKEKFTAFCKAQGFTEDTIVFLPQTDKCMTEQ	4.95 ± 1.2	7.39 ± 0.34	27.3 ± 2.4	25.1 ± 1.9	
MAWASRLGLLLALLLPVVGASTPGTVVRLNKAALSYVSEIGKAPLQRALQVTVPHFLDWSGEALQPTRIRILNVHVPRLHLKFIAGFGVRLLAAANFTFKVFRAPEPLELTLPVELLADTRVTQSSIRTPVVSISACSLFSGHANEFDGSNSTSHALLVLVQKHIKAVLSNKLCLSISNLVQGVNVHLGTLIGLNPVGPESQIRYSMVSVPTVTSDYISLEVNAVLFLLGKPIILPTDATPFVLPRHVGTEGSMATVGLSQQLFDSALLLLQKAGALNLDITGQLRSDDNLLNTSALGRLIPEVARQFPEPMPVVLKVRLGATPVAMLHTNNATLRLQPFVEVLATASNSAFQSLFSLDVVVNLRLQLSVSKVKLQGTTSVLGDVQLTVASSNVGFIDTDQVRTLMGTVFEKPLLDHLNALLAMGIALPGVVNLHYVAPEIFVYEGYVVISSGLFYQS [Q8N4F0]	5.06 ± 0.73	15.4 ± 0.54	25.8 ± 3.4	34.57 ± 0.04	
MTLILTSLLFFGLSLGPRTRVQAENLLKPILWAEPGPVITWHNPVTIWCQGTLEAQGYRLDKEGNSMSRHILKTLESENKVKLSIPSMMWEHAGRYHCYYQSPAGWSEPSDPLELVVTAYSRPTLSALPSPVVTSGVNVTLRCASRLGLGRFTLIEEGDHRLSWTLNSHQHNHGKFQALFPMGPLTFSNRGTFRCYGYENNTPYVWSEPSDPLQLLVSGVSRKPSLLTLQGPVVTPGENLTLQCGSDVGYIRYTLYKEGADGLPQRPGRQPQAGLSQANFTLSPVSRSYGGQYRCYGAHNVSSEWSAPSDPLDILIAGQISDRPSLSVQPGPTVTSGEKVTLLCQSWDPMFTFLLTKEGAAHPPLRLRSMYGAHKYQAEFPMSPVTSAHAGTYRCYGSRSSNPYLLSHPSEPLELVVSGATETLNPAQKKSDSKTAPHLQDYTVENLIRMGVAGLVLLFLGILLFEAQHSQRSPPRCSQEANSRKDNAPFRVVEPWEQI	4.68 ± 0.17	5.06 ± 0.98	28.3 ± 0.36	29 ± 2.8	
MARAHWGCCPWLVLLCACAWGHTKPVDLGGQDVRNCSTNPPYLPVTVVNTTMSLTALRQQMQTQNLSAYIIPGTDAHMNEYIGQHDERRAWITGFTGSAGTAVVTMKKAAVWTDSRYWTQAERQMDCNWELHKEVGTTPIVTWLLTEIPAGGRVGFDPFLLSIDTWESYDLALQGSNRQLVSITTNLVDLVWGSERPPVPNQPIYALQEAFTGSTWQEKVSGVRSQMQKHQKVPTAVLLSALEETAWLFNLRASDIPYNPFFYSYTLLTDSSIRLFANKSRFSSETLSYLNSSCTGPMCVQIEDYSQVRDSIQAYSLGDVRIWIGTSYTMYGIYEMIPKEKLVTDTYSPVMMTKAVKNSKEQALLKASHVRDAVAVIRYLVWLEKNVPKGTVDEFSGAEIVDKFRGEEQFSSGPSFETISASGLNAALAHYSPTKELNRKLSSDEMYLLDSGGQYWDGTTDITRTVHWGTPSAFQKEAYTRVLIGNIDLSRLIFPAATSGRMVEAFARRALWDAGLNYGHGTGHGIGNFLCVHEWPVGFQSNNIAMAKGMFTSIEPGYYKDGEFGIRLEDVALVVEAKTKYPGSYLTFEVVSFVPYDRNLIDVSLLSPEHLQYLNRYYQTIREKVGPELQRRQLLEEFEWLQQHTEPLAARAPDTASWASVLVVSTLAILGWSV	5.4 ± 1.8	6.21 ± 0.83	23.2 ± 0.31	26.8 ± 0.78	
MRRMWATQGLAVALALSVLPGSRALRPGDCEVCISYLGRFYQDLKDRDVTFSPATIENELIKFCREARGKENRLCYYIGATDDAATKIINEVSKPLAHHIPVEKICEKLKKKDSQICELKYDKQIDLSTVDLKKLRVKELKKILDDWGETCKGCAEKSDYIRKINELMPKYAPKAASARTDL					percentage of EdU-negative [1, 10]: 5.21 ± 0.51%; percentage of EdU-negative [1, 11]: 6.6 ± 0.2%; percentage of EdU-negative [2, 10]: 25.9 ± 1.2%; percentage of EdU-negative [2, 11]: 24.8 ± 3.6%
MLLAWVQAFLVSNMLLAEAYGSGGCFWDNGHLYREDQTSPAPGLRCLNWLDAQSGLASAPVSGAGNHSYCRNPDEDPRGPWCYVSGEAGVPEKRPCEDLRCPETTSQALPAFTTEIQEASEGPGADEVQVFAPANALPARSEAAAVQPVIGISQRVRMNSKEKKDLGTLGYVLGITMMVIIIAIGAGIILGYSYKRGKDLKEQHDQKVCEREMQRITLPLSAFTNPTCEIVDEKTVVVHTSQTPVDPQEGTTPLMGQAGTPGA [Q96FE7]	4.79 ± 0.62	5.22 ± 0.39	24.9 ± 2	25.1 ± 0.47	
MGTKAQVERKLLCLFILAILLCSLALGSVTVHSSEPEVRIPENNPVKLSCAYSGFSSPRVEWKFDQGDTTRLVCYNNKITASYEDRVTFLPTGITFKSVTREDTGTYTCMVSEEGGNSYGEVKVKLIVLVPPSKPTVNIPSSATIGNRAVLTCSEQDGSPPSEYTWFKDGIVMPTNPKSTRAFSNSSYVLNPTTGELVFDPLSASDTGEYSCEARNGYGTPMTSNAVRMEAVERNVGVIVAAVLVTLILLGILVFGIWFAYSRGHFDRTKKGTSSKKVIYSQPSARSEGEFKQTSSFLV [Q9Y624]	4.79 ± 0.22	5.1 ± 1.2	24.4 ± 0.49	25.6 ± 5.5	
MLWRQLIYWQLLALFFLPFCLCQDEYMESPQTGGLPPDCSKCCHGDYSFRGYQGPPGPPGPPGIPGNHGNNGNNGATGHEGAKGEKGDKGDLGPRGERGQHGPKGEKGYPGIPPELQIAFMASLATHFSNQNSGIIFSSVETNIGNFFDVMTGRFGAPVSGVYFFTFSMMKHEDVEEVYVYLMHNGNTVFSMYSYEMKGKSDTSSNHAVLKLAKGDEVWLRMGNGALHGDHQRFSTFAGFLLFETK [Q9BXJ4]	5.75 ± 0.2	5.41 ± 0.19	24.8 ± 1.7	26.38 ± 0.15	
